Measurements: paper PMC5662623

Assays:
[1] = molecular target: adaptor protein AP-3; experiment: GST pull-down from rat brain lysate, immunoblot band intensity quantification (anti-β-NAP); conditions: at least three independent experiments; parent: est. 1.0; read off a plot
[2] = molecular target: adaptor protein AP-1; experiment: GST pull-down from rat brain lysate, immunoblot band intensity quantification (anti-adaptin γ); conditions: at least three independent experiments; parent: est. 1.0; read off a plot

“GST fusion of the WT VGLUT2 C-terminus F518G; I519G” showed a ratio to parent [1] of 0.33 and a ratio to parent [2] of 0.59.
